# Patent US20240018251A1 (BIOHENG THERAPEUTICS, published 2024)
# Numbering of substitutions follows the chain as printed.
# B1: chimeric antigen receptor comprising humanized anti-BCMA single domain antibody BH60_V1, on CAR-T cells (other)
# chain: QVQLVESGGGLVQPGGSLRLSCAVSGGIFTINDMAWFRQAPGKQRELVAHISRSGSTYYRDSVKGRFTISRDNSKNTLYLQMNSLRAEDTATYYCNSIDRPLSYGQGTLVTVSTTTPAPRPPTPAPTIASQPLSLRPEACRPAAGGAVHTRGLDFACDIYIWAPLAGTCGVLLLSLVITLYCKRGRKKLLYIFKQPFMRPVQTTQEEDGCSCRFPEEEEGGCELRVKFSRSADAPAYQQGQNQLYNELNLGRREEYDVLDKRRGRDPEMGGKPRRKNPQEGLYNELQKDKMAEAYSEIGMKGERRRGKGHDGLYQGLSTATKDTYDALHMQALPPR
# B2: chimeric antigen receptor comprising humanized anti-BCMA single domain antibody BH60_GKV1, on CAR-T cells (other)
# chain: B1 chain with A23V, V24A, S74A, T77S, T92V
# B3: chimeric antigen receptor comprising humanized anti-BCMA single domain antibody BH60_GKV2, on CAR-T cells (other)
# chain: B1 chain with V24A, S74A, T77S, T92V, L109Q
# B4: chimeric antigen receptor comprising humanized anti-BCMA single domain antibody BH60_V5, on CAR-T cells (other)
# chain: B1 chain with A23V, S62F
# B5: chimeric antigen receptor comprising humanized anti-BCMA single domain antibody BH60_V6, on CAR-T cells (other)
# chain: B1 chain with A23V, S62F, L78S, S84N
# B6: chimeric antigen receptor comprising humanized anti-BCMA single domain antibody BH60_V3, on CAR-T cells (other)
# chain: EVQLVESGGGLVQPGGSLRLSCVVSGGIFTINDMAWVRQAPGKGLEWVAHISRSGSTYYRDSVKGRFTISRDNAKNSLYLQMNSLRAEDTAVYYCNSIDRPLSYGQGTLVTVSSTTTPAPRPPTPAPTIASQPLSLRPEACRPAAGGAVHTRGLDFACDIYIWAPLAGTCGVLLLSLVITLYCKRGRKKLLYIFKQPFMRPVQTTQEEDGCSCRFPEEEEGGCELRVKFSRSADAPAYQQGQNQLYNELNLGRREEYDVLDKRRGRDPEMGGKPRRKNPQEGLYNELQKDKMAEAYSEIGMKGERRRGKGHDGLYQGLSTATKDTYDALHMQALPPR
# B7: chimeric antigen receptor comprising humanized anti-BCMA single domain antibody BH86_V1, on CAR-T cells (other)
# chain: QVQLVESGGGLVQAGESLRLSCAASGRAISSIVMAWWRQTPGAEREFVASINRWGGTPYYSDSVKGRFTISRDNSKNTLYLQMNSLRAEDTAVYYCAAASTLDSGYDYWGQGTLVTVSTTTPAPRPPTPAPTIASQPLSLRPEACRPAAGGAVHTRGLDFACDIYIWAPLAGTCGVLLLSLVITLYCKRGRKKLLYIFKQPFMRPVQTTQEEDGCSCRFPEEEEGGCELRVKFSRSADAPAYQQGQNQLYNELNLGRREEYDVLDKRRGRDPEMGGKPRRKNPQEGLYNELQKDKMAEAYSEIGMKGERRRGKGHDGLYQGLSTATKDTYDALHMQALPPR
# B8: chimeric antigen receptor comprising humanized anti-BCMA single domain antibody BH86_GKV1, on CAR-T cells (other)
# chain: B7 chain with V2E, Q3V, A14P, E16G, N74H, S75A, Q111H, L114Q
# B9: chimeric antigen receptor comprising humanized anti-BCMA single domain antibody BH86_GKV2, on CAR-T cells (other)
# chain: QEVLVESGGGLVQPGGSLRLSCAASGRAISSIVMAWWRQTPGAEREFVASINRWGGTPYYSDSVKGRFTISRDHAKNTLYLQMNSLKSADTAVYYCAAASTLDSGYDYWGPGTQVTVSTTTPAPRPPTPAPTIASQPLSLRPEACRPAAGGAVHTRGLDFACDIYIWAPLAGTCGVLLLSLVITLYCKRGRKKLLYIFKQPFMRPVQTTQEEDGCSCRFPEEEEGGCELRVKFSRSADAPAYQQGQNQLYNELNLGRREEYDVLDKRRGRDPEMGGKPRRKNPQEGLYNELQKDKMAEAYSEIGMKGERRRGKGHDGLYQGLSTATKDTYDALHMQALPPR
# B10: chimeric antigen receptor comprising humanized anti-BCMA single domain antibody BH86_GKV3, on CAR-T cells (other)
# chain: B9 chain with P111Q
# B11: chimeric antigen receptor comprising humanized anti-BCMA single domain antibody BH86_V4, on CAR-T cells (other)
# chain: B7 chain with Q111H
# B12: chimeric antigen receptor comprising humanized anti-BCMA single domain antibody BH86_V6, on CAR-T cells (other)
# chain: B7 chain with D62N, T69A, L79I, Y80H, A88S, Q111H
# B13: chimeric antigen receptor comprising humanized anti-BCMA single domain antibody BH86_V2, on CAR-T cells (other)
# chain: EVQLVESGGGLVKPGGSLRLSCAASGRAISSIVMAWVRQAPGKGLEWVASINRWGGTPYYSAPVKGRFTISRDDSKNTLYLQMNSLKTEDTAVYYCAAASTLDSGYDYWGQGTLVTVSSTTTPAPRPPTPAPTIASQPLSLRPEACRPAAGGAVHTRGLDFACDIYIWAPLAGTCGVLLLSLVITLYCKRGRKKLLYIFKQPFMRPVQTTQEEDGCSCRFPEEEEGGCELRVKFSRSADAPAYQQGQNQLYNELNLGRREEYDVLDKRRGRDPEMGGKPRRKNPQEGLYNELQKDKMAEAYSEIGMKGERRRGKGHDGLYQGLSTATKDTYDALHMQALPPR
# Target: T1, FITC labeled BCMA (acrobiosystem, Cat. No. BCA-HF254) (UniProt Q02223 1-54, FITC labeled (site not stated))
# T1 construct: Soluble labeled protein used to stain CAR-T cells; also called BCMA antigen protein; BCMA protein
# T1 sequence (looked up): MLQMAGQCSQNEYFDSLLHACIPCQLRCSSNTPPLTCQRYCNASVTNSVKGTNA
# Test: flow cytometry, CAR-T cells stained with FITC labeled BCMA
# Procedure: After culturing at 37° C. and 5% CO₂ for 10 days, FITC labeled BCMA (acrobiosystem, Cat. No. BCA-HF254) was used for binding specific staining, and the ability of the corresponding CAR-T cells to specifically bind to the BCMA antigen protein was detected by flow cytometry, which also reflected the expression level of the CAR molecule.
row,Binder,binding result
1,B1,binds
2,B2,binds
3,B3,binds
4,B4,binds
5,B5,binds
6,B6,binds
7,B7,binds
8,B8,binds
9,B9,binds
10,B10,binds
11,B11,binds
12,B12,binds
13,B13,binds
